Test results as given in patent publication US9125413B1, “Nematicide composition comprising CED-4 peptide” (California State University Fresno, priority 2014, dated 2015).

Columns and labels:
Assay type in all cases: in vivo, Caenorhabditis elegans
[1] = system: C. elegans wild-type (N2 strain) nematodes; test: Fecundity of C. elegans wild-type nematodes fed E. coli producing CED-4
Protocol: (§1) Constructed expression cassettes generate CED-4 protein in bacteria. […] In this experiment, the ced-4 gene was sub-cloned into the pBAD-DEST49 vector. The pBAD-DEST49-ced-4 construct, and the pBAD-DEST49 empty vector were tested for synthesis of the protein CED-4. The E. coli bacteria strain (TOP 10 chem.) was grown, and once the optical density OD600 reached 0.5, the bacteria was induced by adding L-Arabinose 20% and incubated for four hours at 37° C., 226 rpm in rotary shaker (C24, incubator shaker, Edison, N.J. USA). The production of CED-4 protein was analyzed by SDS 10% acrylamide gel and commassie blue staining.
The genes ced-4 and ced-3 are required for PCD in somatic cells of C. elegans, and a loss-of-function (lf) mutation in any one of them results in increased survival rates of cells that would otherwise be eliminated by PCD. In the experiment summarized by FIG. 5, bacteria carrying the ced-4 gene construct and bacteria carrying an empty vector were grown as described above in Section E, and used to feed C. elegans wild-type nematodes, mutant C. elegans ced-3 nematodes, and mutant C. elegans ced-4 nematodes at L1/L2 stages (refer to FIG. 1). For the experiment described in FIG. 5, C. elegans wild-type (wt), ced-3 (n717) and ced-4 (n1162) strains were synchronized, and the hatched nematodes were raised on a diet consisting of E. coli bacteria producing CED-4. Both nematodes and bacteria were sustained on NGM media and incubated at a temperature between 25° C. and 28° C.
(§2) The effects of CED-4 ingestion on all three different strains of C. elegans used were quantified by population size throughout several generations. After the hatched nematodes fed on either the control bacteria or the CED-4 producing bacteria for 72 hours, the nematodes in each experiment were scored for fecundity over the course of 120 hrs. Fecundity was measured by counting the number of hatched offspring. There were ten experiments replicated for each of the three analyzed C. elegans strains.

[2] = system: C. elegans ced-3 (n717) mutant nematodes; test: Fecundity of ced-3 mutant C. elegans fed E. coli producing CED-4
Protocol: as §1
(§3) The genes ced-4 and ced-3 are required for PCD in somatic cells of C. elegans, and a loss-of-function (lf) mutation in any one of them results in increased survival rates of cells that would otherwise be eliminated by PCD. […]
as §2

[3] = system: C. elegans ced-4 (n1162) mutant nematodes; test: Fecundity of ced-4 mutant C. elegans fed E. coli producing CED-4
Protocol: as §1, §3, §2

[4] = versus non-CED-4 producing bacteria

B1: CED-4: 549 amino acid C. elegans protein (SEQ. ID 1, GenBank CAA48781.1), about 62 KD, produced recombinantly in E. coli; fed as CED-4 producing bacteria (protein)
chain: MLCEIECRALSTAHTRLIHDFEPRDALTYLEGKNIFTEDHSELISKMSTRLERIANFLRIYRRQASELGPLIDFFNYNNQSHLADFLEDYIDFAINEPDLLRPVVIAPQFSRQMLDRKLLLGNVPKQMTCYIREYHVDRVIKKLDEMCDLDSFFLFLHGRAGSGKSVIASQALSKSDQLIGINYDSIVWLKDSGTAPKSTFDLFTDILLMLKSEDDLLNFPSVEHVTSVVLKRMICNALIDRPNTLFVFDDVVQEETIRWAQELRLRCLVTTRDVEISNAASQTCEFIEVTSLEIDECYDFLEAYGMPMPVGEKEEDVLNKTIELSSGNPATLMMFFKSCEPKTFEKMAQLNNKLESRGLVGVECITPYSYKSLAMALQRCVEVLSDEDRSALAFAVVMPPGVDIPVKLWSCVIPVDICSNEEEQLDDEVADRLKRLSKRGALLSGKRMPVLTFKIDHIIHMFLKHVVDAQTIANGISILEQRLLEIGNNNVSVPERHIPSHFQKFRRSSASEMYPKTTEETVIRPEDFPKFMQLHQKFYDSLKNFACC
number of hatched offspring (mean) ([1]; 2 wild-type embryos per experiment, fed bacteria expressing CED-4 72 hours, fecundity scored over 120 hrs, ten experiments): about 115 hatched offspring
increase in rate of cell death ([1]; wild-type fed bacteria expressing CED-4 for 6 days): approximately 2 fold
offspring produced relative to those fed bacteria containing empty expression vectors ([1]; wild-type, CED-4 fed, t-test p≦0.01): less than 50%
reduction in fecundity ([1]; wild-type, ingesting bacteria expressing CED-4): 50%
number of hatched offspring (mean) ([2]; 2 ced-3 mutant embryos per experiment, ingesting CED-4 producing bacteria, ten experiments): about 220 hatched offspring
decrease in ced-3 mutant fecundity due to exogenous CED-4 [2, 4]: statistically insignificant
number of hatched offspring (mean) ([3]; 2 ced-4 mutant embryos per experiment, exposed to CED-4 producing bacteria, ten experiments): about 236 hatched offspring
decrease in ced-4 mutant fecundity due to exogenous CED-4 [3, 4]: statistically insignificant
